The text below walks through data of patent US12227771B2, “Expression systems and methods of use thereof” (Janssen Pharmaceutica NV, priority 2019, dated 2025).

In this experiment the target is T1, human α9α10 nAChR (Homo sapiens, UniProt Q9GZZ6+Q9UGM1).
T1 construct: expressed in transfected cells; host or cells: HEK293T
In words: FLIPR calcium assay of HEK293T cells co-transfected with α9α10 nAChR and cDNA clones, response evoked by 200 μM ACh. It counts as cell-based. The conditions noted are these: for FLIPR Response (Fold/Baseline) / functional expression of co-transfected α9α10 nAChR in cDNA library screen / combined effect of TMIE and CHAT on functional responses from α9α10 nAChR: 200 μM ACh; for FLIPR Response (Fold/Baseline): 180 s; for functional expression of co-transfected α9α10 nAChR in cDNA library screen: HEK293T, 20,000 cDNA clones; for FLIPR response evoked by 200 μM ACh: HEK293T transfected with α9α10 nAChR and the named protein; for combined effect of TMIE and CHAT on functional responses from α9α10 nAChR: HEK293T. Here is the method:
Human embryonic kidney 293T (HEK293T) cells were cultured in high glucose DMEM medium supplemented with 10% FBS, sodium pyruvate and penicillin/streptomycin. Prior to transfection, cells were seeded at ˜80-90% confluence in 384-well fluorescence imaging plate reader (FLIPR) assay plates. After a 4 hour (hr) incubation, wells of cells were individually co-transfected with human α9α10 nAChR plus one of 20,000 clones from cDNA libraries encoding most all human proteins (Origene Technologies; Rockville, Md.; Broad Institute; Cambridge, Mass.) using Fugene HD (Promega; Madison, Wis.) according to the manufacture's protocol. After two days incubation, cells were washed three times with assay buffer (137 mM NaCl, 4 mM KCl, 2 mM CaCl2, 1 mM MgCl2, 5 mM glucose, 10 mM HEPES pH7.4) and loaded with Calcium5 dye (Molecular Devices; San Jose, Calif.) and 1.25 mM probenecid for 1 hr at room temperature (RT). After three washes, the plates were placed in the FLIPR stage.
To further characterize the regulation of α9α10 nAChR expression, HEK293T cells were co-transfected with α9α10 nAChR and each of CHAT, TMIE, TMEM100, TMEM132A, TMEM132C, TMEM132D, TMEM132E and TNFRSF10A individually and in combination (Table 2).

The mark [1] stands for this setting: HEK293T co-transfected with α9α10 nAChR + CHAT plus the named gene.
The mark [2] stands for this setting: HEK293T co-transfected with α9α10 nAChR plus the named gene.

T1 sequence (Q9UGM1 23-479): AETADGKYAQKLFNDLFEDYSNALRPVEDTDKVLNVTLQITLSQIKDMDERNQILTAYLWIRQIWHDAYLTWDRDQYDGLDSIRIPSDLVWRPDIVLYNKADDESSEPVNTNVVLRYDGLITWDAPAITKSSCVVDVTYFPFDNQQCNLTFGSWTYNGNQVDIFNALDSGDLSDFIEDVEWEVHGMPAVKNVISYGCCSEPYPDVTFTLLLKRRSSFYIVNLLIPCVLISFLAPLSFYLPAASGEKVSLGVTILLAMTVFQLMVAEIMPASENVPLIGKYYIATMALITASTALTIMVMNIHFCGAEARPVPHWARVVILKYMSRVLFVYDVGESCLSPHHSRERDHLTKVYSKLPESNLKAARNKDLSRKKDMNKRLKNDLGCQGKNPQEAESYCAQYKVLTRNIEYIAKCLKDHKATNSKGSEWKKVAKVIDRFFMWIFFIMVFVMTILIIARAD
T1 sequence (Q9GZZ6 25-450): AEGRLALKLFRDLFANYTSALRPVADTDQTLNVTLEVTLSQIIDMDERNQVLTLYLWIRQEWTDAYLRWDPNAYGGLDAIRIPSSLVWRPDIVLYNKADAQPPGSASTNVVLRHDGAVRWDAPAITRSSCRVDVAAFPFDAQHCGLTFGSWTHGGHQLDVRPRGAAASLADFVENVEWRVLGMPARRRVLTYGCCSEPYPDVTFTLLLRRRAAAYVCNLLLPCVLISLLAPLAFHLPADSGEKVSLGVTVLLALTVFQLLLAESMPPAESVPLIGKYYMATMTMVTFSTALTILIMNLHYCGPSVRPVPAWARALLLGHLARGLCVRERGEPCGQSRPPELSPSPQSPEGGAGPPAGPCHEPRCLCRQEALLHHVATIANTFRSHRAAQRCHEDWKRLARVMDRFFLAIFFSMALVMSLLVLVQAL

B1: TMEM132D: Transmembrane protein 132D, SEQ ID NO: 7, co-transfected cDNA clone (protein, listed as Homo sapiens)
chain: MCPSEMGTLWHHWSPVLISLAALFSKVTEGRGILESIQRFSLLPTYLPVTYHINNADVSFFLKEANQDIMRNSSLQSRVESFLIYKSRRLPVLNASYGPFSIEQVVPQDLMLPSNPFGFTNKFSLNWKLKAHILRDKVYLSRPKVQVLFHIMGRDWDDRSAGEKLPCLRVFAFRETREVRGSCRLQGDLGLCVAELELLSSWFSPPTVVAGRRKSVDQPEGTPVELYYTVHPGGERGDCVREDARRSNGIRTGHSDIDESGPPLQRIGSIFLYQTHRKPSLRELRLDNSVAIHYIPKTVRKGDVLTFPVSISRNSTEDRFTLRAKVKKGVNIIGVRASSPSIWDVKERTDYTGKYAPAVIVCQKKAAGSENSADGASYEVMQIDVEVEEPGDLPATQLVTWQVEYPGEITSDLGVSKIYVSPKDLIGVVPLAMEAEILNTAILTGKTVAVPVKVVSVEDDGTVTELLESVECRSSDEDVIKVSDRCDYVFVNGKEMKGKVNVVVNFTYQHLSSPLEMTVWVPRLPLQIEVSDTELNQIKGWRVPIVSSRRPAGDSEEEEDDERRGRGCTLQYQHAMVRVLTQFVAEAAGPGGHLAHLLGSDWQVDITELINDFMQVEEPRIAKLQGGQILMGQELGMTTIQILSPLSDTILAEKTITVLDEKVTITDLGVQLVTGLSLSLQLSPGSNRAIFATAVAQELLQRPKQEAAISCWVQFSDGSVTPLDIYDGKDFSLMATSLDEKVVSIHQDPKFKWPIIAAETEGQGTLVKVEMVISESCQKSKRKSVLAVGTANIKVKFGQNDANPNTSDSRHTGAGVHMENNVSDRRPKKPSQEWGSQEGQYYGSSSMGLMEGRGTTTDRSILQKKKGQESLLDDNSHLQTIPSDLTSFPAQVDLPRSNGEMDGNDLMQASKGLSDLEIGMYALLGVFCLAILVFLINCVTFALKYRHKQVPFEEQEGMSHSHDWVGLSNRTELLENHINFASSQDEQITAIDRGMDFEESKYLLSTNSQKSINGQLFKPLGPIIIDGKDQKSEPPTSPTSKRKRVKFTTFTAVSSDDEYPTRNSIVMSSEDDIKWVCQDLDPGDCKELHNYMERLHENV
Take B1: the “functional expression of co-transfected α9α10 nAChR in cDNA library screen” value (shortened to “functional expression”) is “enabled functional expression”. Besides, under setting [1], the “FLIPR Response (Fold/Baseline)” value is on record as 2.6 Fold/Baseline. The “FLIPR Response (Fold/Baseline)” value under setting [2] stood at 0.4 Fold/Baseline.

B2: TMEM132C: Transmembrane protein 132C, SEQ ID NO: 6, co-transfected cDNA clone (protein, listed as Homo sapiens)
chain: MRSEGAAPGPAAPLCGALSLLLGALLGKVIEGHGVTDNIQRFSSLPPYLPVSYHILRAETSFFLKEANQDLLRNSSLQARVESFFTYKTRQPPVLNASYGPFSVEKVVPLDLMLTSNFLGPTNKFSFDWKLKAHILRDKVYLSRPKVQVLFHIMGRDWDDHGAGEKLPCLRVFAFRETREVRGSCRLKGDLGLCVAELELLSSWFSAPTVGAGRKKSMDQPEGTPVELYYTVHPGNERGDCAGGDFRKGNAIRPGKDGLEETTSHLQRIGTVGLYRAQDSAQLSELRLDGNVVIWLPSRPVKQGEVVTAYVTISSNSSVDLFILRAKVKKGVNILSAQTREPRQWGVKQEVGSGGKHVTATVACQRLGPSPRNRSSSLFNEVVQMNFEIASFSSLSGTQPITWQVEYPRKGTTDIAVSEIFVSQKDLVGIVPLAMDTEILNTAVLTGKTVAMPIKVVSVEENSAVMDISESVECKSTDEDVIKVSERCDYIFVNGKEIKGKMDAVVNFTYQYLSAPLCVTVWVPRLPLQIEVSDTELSQIKGWRVPIVTNKRPTRESEDEDEEERRGRGCALQYQHATVRVLTQFVSEGAGPWGQPNYLLSPNWQFDITHLVADFMKLEEPHVATLQDSRVLVGREVGMTTIQVLSPLSDSILAEKTITVLDDKVSVTDLAIQLVAGLSVALYPNAENSKAVTAVVTAEEVLRTPKQEAVFSTWLQFSDGSVTPLDIYDTKDFSLAATSQDEAVVSVPQPRSPRWPVVVAEGEGQGPLIRVDMTIAEACQKSKRKSILAVGVGNVRVKFGQNDADSSPGGDYEEDEIKNHASDRRQKGQHHERTGQDGHLYGSSPVEREEGALRRATTTARSLLDNKVVKNSRADGGRLAGEGQLQNIPIDFTNFPAHVDLPKAGSGLEENDLVQTPRGLSDLEIGMYALLGVFCLAILVFLINCATFALKYRHKQVPLEGQASMTHSHDWVWLGNEAELLESMGDAPPPQDEHTTIIDRGPGACEESNHLLLNGGSHKHVQSQIHRSADSGGRQGREQKQDPLHSPTSKRKKVKFTTFTTIPPDDSCPTVNSIVSSNDEDIKWVCQDVAVGAPKELRNYLEKLKDKA
For the molecule B2, the “functional expression” value is reported as “enabled functional expression”. Moreover, the “FLIPR Response (Fold/Baseline)” value under setting [1] worked out at 2.0 Fold/Baseline. Also, the “FLIPR Response (Fold/Baseline)” value under setting [2] came out at 0.7 Fold/Baseline.

B3: CHAT: Choline O-acetyltransferase, SEQ ID NO: 3, co-transfected cDNA clone (protein, listed as Homo sapiens)
chain: MAAKTPSSEESGLPKLPVPPLQQTLATYLQCMRHLVSEEQFRKSQAIVQQFGAPGGLGETLQQKLLERQEKTANWVSEYWLNDMYLNNRLALPVNSSPAVIFARQHFPGTDDQLRFAASLISGVLSYKALLDSHSIPTDCAKGQLSGQPLCMKQYYGLFSSYRLPGHTQDTLVAQNSSIMPEPEHVIVACCNQFFVLDVVINFRRLSEGDLFTQLRKIVKMASNEDERLPPIGLLTSDGRSEWAEARTVLVKDSTNRDSLDMIERCICLVCLDAPGGVELSDTHRALQLLHGGGYSKNGANRWYDKSLQFVVGRDGTCGVVCEHSPFDGIVLVQCTEHLLKHMTQSSRKLIRADSVSELPAPRRLRWKCSPEIQGHLASSAEKLQRIVKNLDFIVYKFDNYGKTFIKKQKCSPDAFIQVALQLAFYRLHRRLVPTYESASIRRFQEGRVDNIRSATPEALAFVRAVTDHKAAVPASEKLLLLKDAIRAQTAYTVMAITGMAIDNHLLALRELARAMCKELPEMFMDETYLMSNRFVLSTSQVPTTTEMFCCYGPVVPNGYGACYNPQPETILFCISSFHSCKETSSSKFAKAVEESLIDMRDLCSLLPPTESKPLATKEKATRPSQGHQP
On to B3, for which the “FLIPR response evoked by 200 μM ACh” value is on record as “significant FLIPR responses”; the “functional expression” value is listed as “enabled functional expression”; the “combined effect of TMIE and CHAT on functional responses from α9α10 nAChR” value was “synergized to enhance functional responses”.

B4: TMEM132A: Transmembrane protein 132A, SEQ ID NO: 5, co-transfected cDNA clone (protein, listed as Homo sapiens)
chain: MCARMAGRTTAAPRGPYGPWLCLLVALALDVVRVDCGQAPLDPVYLPAALELLDAPEHFRVQQVGHYPPANSSLSSRSETFLLLQPWPRAQPLLRASYPPFATQQVVPPRVTEPHQRPVPWDVRAVSVEAAVTPAEPYARVLFHLKGQDWPPGSGSLPCARLHATHPAGTAHQACRFQPSLGACVVELELPSHWFSQASTTRAELAYTLEPAAEGPGGCGSGEENDPGEQALPVGGVELRPADPPQYQEVPLDEAVTLRVPDMPVRPGQLFSATLLLRHNFTASLLTLRIKVKKGLHVTAARPAQPTLWTAKLDRFKGSRHHTTLITCHRAGLTEPDSSPLELSEFLWVDFVVENSTGGGVAVTRPVTWQLEYPGQAPEAEKDKMVWEILVSERDIRALIPLAKAEELVNTAPLTGVPQHVPVRLVTVDGGGALVEVTEHVGCESANTQVLQVSEACDAVFVAGKESRGARGVRVDFWWRRLRASLRLTVWAPLLPLRIELTDTTLEQVRGWRVPGPAEGPAEPAAEASDEAERRARGCHLQYQRAGVRFLAPFAAHPLDGGRRLTHLLGPDWLLDVSHLVAPHARVLDSRVASLEGGRVVVGREPGVTSIEVRSPLSDSILGEQALAVTDDKVSVLELRVQPVMGISLTLSRGTAHPGEVTATCWAQSALPAPKQEVALSLWLSFSDHTVAPAELYDRRDLGLSVSAEEPGAILPAEEQGAQLGVVVSGAGAEGLPLHVALHPPEPCRRGRHRVPLASGTAWLGLPPASTPAPALPSSPAWSPPATEATMGGKRQVAGSVGGNTGVRGKFERAEEEARKEETEAREEEEEEEEEMVPAPQHVTELELGMYALLGVFCVAIFIFLVNGVVFVLRYQRKEPPDSATDPTSPQPHNWVWLGTDQEELSRQLDRQSPGPPKGEGSCPCESGGGGEAPTLAPGPPGGTTSSSSTLARKEAGGRRKRVEFVTFAPAPPAQSPEEPVGAPAVQSILVAGEEDIRWVCEDMGLKDPEELRNYMERIRGSS
Regarding B4, the “functional expression” value is recorded as “enabled functional expression”. The “FLIPR Response (Fold/Baseline)” value under setting [1] is 2.5 Fold/Baseline. The “FLIPR Response (Fold/Baseline)” value under setting [2] amounted to 0.3 Fold/Baseline.

B5: TMIE: Transmembrane inner ear expressed protein, SEQ ID NO: 4, co-transfected cDNA clone (protein, listed as Homo sapiens)
chain: MAGWPGAGPLCVLGGAALGVCLAGVAGQLVEPSTAPPKPKPPPLTKETVVFWDMRLWHVVGIFSLFVLSIIITLCCVFNCRVPRTRKEIEARYLQRKAAKMYTDKLETVPPLNELTEVPGEDKKKKKKKKKDSVDTVAIKVEEDEKNEAKKKKGEK
B5: the “FLIPR response evoked by 200 μM ACh” value was “significant FLIPR responses”; the “functional expression” value is on record as “enabled functional expression”; the “combined effect of TMIE and CHAT on functional responses from α9α10 nAChR” value was “synergized to enhance functional responses”. In addition, under setting [1], the “FLIPR Response (Fold/Baseline)” value is 2.2 Fold/Baseline. Further, the “FLIPR Response (Fold/Baseline)” value under setting [2] is recorded as 0.7 Fold/Baseline.
